Data published in publication PMC2794542.

Target: full length LRRK2, FLAG-tagged and V5-tagged copies co-expressed (human) (UniProt Q5S007)
Assay: co-IP; 293T cells co-transfected with FLAG- and V5-LRRK2; gel filtration fractions 20-23 (α-complex, ~600 kDa) pooled, immunoprecipitated with anti-FLAG, blotted with anti-FLAG and anti-V5, densitometry
Conditions: remark: other sources report otherwise

- ratio of FLAG-LRRK2 to V5-LRRK2 in the anti-FLAG IP: 1.87
- stoichiometry N: 2
Substance: full length LRRK2, FLAG-tagged and V5-tagged copies co-expressed, Q5S007 1-2527
